The RNAGym collection of RNA variant scans (doi:10.1021/acssynbio.7b00057)

B1: Pistol ribozyme (parent)
chain: GGGUCGUUGUUCCAUAAUCGCGUGGAUAUGGCACGCAAGUUUCUACCGGGCACCGUAAAUGUCCGACUGGAGCCGUUCGGGCGGCUAUAAACAGACCUCAGGCCCGAAGCGUGGCGGCACCUGCCGCCGGUGGUAAAAAAGAUCGGAAGAGCACACGUCU

Variants of: B1
Assay: aptazyme ON/OFF ratio, guanine; higher = stronger switching; co-transcriptional cleavage with and without guanine

Row | Variant | aptazyme ON/OFF ratio
1 | U8G G9A C12A | 1.61
2 | U8G G9A C12U | 1.39
3 | U8G G9A C12G | 1.16
4 | U8G G9A U10C U11A C12U C13G | 1.05
5 | U8G G9A U10C U11A C12U C13A | 1.04
6 | U8G G9A U10C U11A C12U C13U | 1.05
7 | U8G C13G | 1.2
8 | U8G C13A | 1.3
9 | U8G C13U | 1.27
10 | U8G G9A U10A C13G | 1.08
11 | U8G G9A U10A C13A | 1.25
12 | U8G G9A U10A C13U | 1.22
13 | U8G G9A U10A U11C C12A C13G | 1.12
14 | U8G G9A U10A U11C C12A C13U | 1.32
15 | U8G G9A U10A U11C C12A C13A | 1.21
16 | U8G G9A U10A U11C C12G C13A | 1.24
17 | U8G G9A U10A U11C C12G C13G | 1.21
18 | U8G G9A U10A U11C C12G C13U | 1.36
19 | U8G G9A U11C C13G | 1.01
20 | U8G G9A U11C C13A | 1.07
21 | U8G G9A U11C C13U | 1.06
22 | U8G G9A U10G C12A | 1.44
23 | U8G G9A U10G C12U | 1.39
24 | U8G G9A U10G C12G | 1.34

Row | Variant | aptazyme ON/OFF ratio
25 | U8G G9A U11C C12A C13A | 1.34
26 | U8G G9A U11C C12A C13U | 1.3
27 | U8G G9A U11C C12A C13G | 1.16
28 | U8G G9A U10A U11G | 1.55
29 | U8G G9A U10A U11A | 1.6
30 | U8G G9A U10A U11C | 1.06
31 | U8G G9A U10C U11C C12A C13U | 1.07
32 | U8G G9A U10C U11C C12A C13A | 1.05
33 | U8G G9A U10C U11C C12A C13G | 1.12
34 | U8G C12U C13A | 1.23
35 | U8G C12U C13G | 1.4
36 | U8G C12U C13U | 1.18
37 | U8G G9A U10A U11G C12G C13U | 1.28
38 | U8G G9A U10A U11G C12G C13G | 1.05
39 | U8G G9A U10A U11G C12G C13A | 1.34
40 | U8C U10G U11G C13G | 1.2
41 | U8C U10G U11G C13A | 1.25
42 | U8C U10G U11G C13U | 1.22
43 | U8G G9A U10C C12U C13U | 1.11
44 | U8G G9A U10C C12U C13A | 1.14
45 | U8G G9A U10C C12U C13G | 1.08
46 | U8G G9A U10G U11A C13G | 1.21
47 | U8G G9A U10G U11A C13U | 1.14
48 | U8G G9A U10G U11A C13A | 1.14

Row | Variant | aptazyme ON/OFF ratio
49 | U8G G9A U10G U11A | 1.05
50 | U8G G9A U10G U11G | 1.59
51 | U8G G9A U10G U11C | 1.05
52 | U8C U11C C12A C13G | 1.4
53 | U8C U11C C12A C13U | 1.73
54 | U8C U11C C12A C13A | 1.24
55 | U8G G9A U10G U11C C12U | 1.02
56 | U8G G9A U10G U11C C12G | 1.19
57 | U8G G9A U10G U11C C12A | 1.19
58 | U8G G9A U10C U11G C12A C13U | 1.16
59 | U8G G9A U10C U11G C12A C13G | 1.18
60 | U8G G9A U10C U11G C12A C13A | 1.18
61 | U8C U11A C12A | 1.34
62 | U8C U11A C12U | 1.19
63 | U8C U11A C12G | 1.25
64 | U8G G9A U10G U11A C12G | 1.6
65 | U8G G9A U10G U11A C12A | 1.34
66 | U8G G9A U10G U11A C12U | 1.35
67 | U8G G9A U10G U11C C12A C13A | 1.18
68 | U8G G9A U10G U11C C12A C13G | 1.16
69 | U8G G9A U10G U11C C12A C13U | 1.18
70 | U8G G9A C12A C13G | 1.27
71 | U8G G9A C12A C13A | 1.25
72 | U8G G9A C12A C13U | 1.39

Row | Variant | aptazyme ON/OFF ratio
73 | U8G G9A U11A C12A C13A | 1.19
74 | U8G G9A U11A C12A C13U | 1.15
75 | U8G G9A U11A C12A C13G | 1.25
76 | U8G G9A U10C U11G C12G C13U | 1.14
77 | U8G G9A U10C U11G C12G C13A | 1.34
78 | U8G G9A U10C U11G C12G C13G | 1.42
79 | U8G G9A U10C U11G C13A | 1.11
80 | U8G G9A U10C U11G C13G | 1.16
81 | U8G G9A U10C U11G C13U | 1.09
82 | U8G G9A U10A U11G C12A | 1.08
83 | U8G G9A U10A U11G C12U | 1.3
84 | U8G G9A U10A U11G C12G | 1.48
85 | U8G G9A U10A U11A C12G C13A | 1.22
86 | U8G G9A U10A U11A C12G C13U | 1.27
87 | U8G G9A U10A U11A C12G C13G | 1.39
88 | U8G G9A C12G C13G | 1.29
89 | U8G G9A C12G C13U | 1.33
90 | U8G G9A C12G C13A | 1.37
91 | U8C U11A C12A C13G | 1.11
92 | U8C U11A C12A C13A | 1.32
93 | U8C U11A C12A C13U | 1.28
94 | U8G G9A U10G C12A C13U | 1.45
95 | U8G G9A U10G C12A C13G | 1.18
96 | U8G G9A U10G C12A C13A | 1.29

Row | Variant | aptazyme ON/OFF ratio
97 | U8G G9A U10C C12A C13A | 1.2
98 | U8G G9A U10C C12A C13U | 1.17
99 | U8G G9A U10C C12A C13G | 1.09
100 | U8G G9A U11A C13U | 1.23
101 | U8G G9A U11A C13G | 1.07
102 | U8G G9A U11A C13A | 1.14
103 | U8G G9A U10C C12G | 1.2
104 | U8G G9A U10C C12A | 1.25
105 | U8G G9A U10C C12U | 1.14
106 | U8G G9A U11A C12A | 1.33
107 | U8G G9A U11A C12U | 1.43
108 | U8G G9A U11A C12G | 1.17
109 | U8G G9A U10C U11A C12A C13A | 1.15
110 | U8G G9A U10C U11A C12A C13U | 1.16
111 | U8G G9A U10C U11A C12A C13G | 1.11
112 | U8G G9A U10A C12A C13A | 1.33
113 | U8G G9A U10A C12A C13G | 1.18
114 | U8G G9A U10A C12A C13U | 1.26
115 | U8G G9A U10A U11C C12U C13A | 1.18
116 | U8G G9A U10A U11C C12U C13U | 1.07
117 | U8G G9A U10A U11C C12U C13G | 1.23
118 | U8G G9A U10A C12U | 1.27
119 | U8G G9A U10A C12G | 1.18
120 | U8G G9A U10A C12A | 1.32

Row | Variant | aptazyme ON/OFF ratio
121 | U8G G9A U10G U11G C12U C13U | 1.29
122 | U8G G9A U10G U11G C12U C13G | 1.46
123 | U8G G9A U10G U11G C12U C13A | 1.36
124 | U8G C12G C13A | 1.2
125 | U8G C12G C13G | 1.15
126 | U8G C12G C13U | 1.55
127 | U8G G9C C12A C13U | 1.07
128 | U8G G9C C12A C13A | 1.04
129 | U8G G9C C12A C13G | 1.03
130 | U8G G9A U10C U11A C13A | 1.1
131 | U8G G9A U10C U11A C13G | 1.06
132 | U8G G9A U10C U11A C13U | 1.08
133 | U8G G9A U10C U11C C12U | 1.02
134 | U8G G9A U10C U11C C12G | 1.05
135 | U8G G9A U10C U11C C12A | 1.08
136 | U8C U11A C13U | 1.11
137 | U8C U11A C13G | 1.07
138 | U8C U11A C13A | 1.13
139 | U8G G9A U10C U11G C12A | 1.06
140 | U8G G9A U10C U11G C12U | 1.29
141 | U8G G9A U10C U11G C12G | 1.45
142 | U8G G9A U10G U11C C12G C13U | 1.4
143 | U8G G9A U10G U11C C12G C13G | 1.25
144 | U8G G9A U10G U11C C12G C13A | 1.27

Row | Variant | aptazyme ON/OFF ratio
145 | U8G G9A U11G C12U C13U | 1.24
146 | U8G G9A U11G C12U C13A | 1.2
147 | U8G G9A U11G C12U C13G | 1.16
148 | U8G G9A U10C U11A C12G C13U | 1.15
149 | U8G G9A U10C U11A C12G C13A | 1.16
150 | U8G G9A U10C U11A C12G C13G | 1.07
151 | U8G G9A U10C U11C C13A | 0.984
152 | U8G G9A U10C U11C C13U | 1.03
153 | U8G G9A U10C U11C C13G | 1.03
154 | U8G G9A U10C U11A | 1.37
155 | U8G G9A U10C U11C | 1.03
156 | U8G G9A U10C U11G | 1.34
157 | U8G G9A U11A C12G C13A | 1.08
158 | U8G G9A U11A C12G C13G | 1.17
159 | U8G G9A U11A C12G C13U | 1.26
160 | U8G G9A U10A U11A C12A C13U | 1.26
161 | U8G G9A U10A U11A C12A C13G | 1.18
162 | U8G G9A U10A U11A C12A C13A | 1.21
163 | U8G G9A U10A U11G C12A C13U | 1.27
164 | U8G G9A U10A U11G C12A C13G | 1.09
165 | U8G G9A U10A U11G C12A C13A | 1.17
166 | U8C U11G C12A | 1.15
167 | U8C U11G C12G | 1.23
